Results from US20180036441A1 (Dana-Farber, published 2018).
Positions count from the first letter of the chain named.

What was measured:
[1] = molecular target: T1, MUC1 on HCT116/MUC1 cells (UniProt P15941 24-1255, limits assumed); experiment: FACS titration, HCT116/MUC1 cells, antibody at 1.953 nM
T1 construct: whole, on cells; also called MUC1 overexpressed cell line
Protocol: (§1) To assess cell binding, 2×10⁵ HCT116/MUC1 cells per well were washed with PBS twice and incubated in 200 μl of serial dilutions of chimeric or humanized antibodies for 1 hour at room temperature. After washing 3 times with PBS, secondary antibody (2 μg/ml Alexa Flour®488 goat anti-human IgG) was added to cells and incubated for 30 minutes at room temperature. After washing with PBS, cells were analyzed by using FACSCalibur (BD Bioscience, San Jose, Calif.) and Flowjo software.

[2] = molecular target: T1, MUC1 on HCT116/MUC1 cells; experiment: FACS titration, HCT116/MUC1 cells, antibody at 125 nM
Protocol: as §1

[3] = molecular target: T1, MUC1 on HCT116/MUC1 cells; experiment: FACS titration, HCT116/MUC1 cells, antibody at 15.625 nM
Protocol: as §1

[4] = molecular target: T1, MUC1 on HCT116/MUC1 cells; experiment: FACS titration on HCT116/MUC1 cells
Protocol: as §1

[5] = molecular target: T1, MUC1 on HCT116/MUC1 cells; experiment: FACS titration, HCT116/MUC1 cells, antibody at 62.5 nM
Protocol: as §1

[6] = molecular target: T1, MUC1 on HCT116/MUC1 cells; experiment: FACS titration, HCT116/MUC1 cells, antibody at 7.812 nM
Protocol: as §1

[7] = molecular target: T1, MUC1 on HCT116/MUC1 cells; experiment: FACS titration, HCT116/MUC1 cells, antibody at 0.244 nM
Protocol: as §1

[8] = molecular target: T1, MUC1 on HCT116/MUC1 cells; experiment: FACS titration, HCT116/MUC1 cells, antibody at 0.488 nM
Protocol: as §1

[9] = molecular target: T1, MUC1 on HCT116/MUC1 cells; experiment: FACS titration, HCT116/MUC1 cells, antibody at 0.977 nM
Protocol: as §1

MUC1-SEA-His protein = molecular target: T2, MUC1-SEA-His protein (UniProt P15941 1039-1148, limits assumed); experiment: SPR Biacore T200, antibody captured, antigen as analyte
T2 construct: domain: SEA; Recombinant antigen used for ELISA coating and as Biacore analyte; also called MUC-SEA-His; antigen protein; not shown: His tag
T2 sequence (looked up): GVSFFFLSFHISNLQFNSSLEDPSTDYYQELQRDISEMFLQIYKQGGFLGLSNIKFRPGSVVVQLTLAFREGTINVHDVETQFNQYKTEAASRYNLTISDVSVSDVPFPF
Protocol: Antibody affinity was determined using a Surface Plasmon Resonance (SPR) biosensor, Biacore T200 (GE Healthcare). Antibody was immobilized on the sensor chip through Fc capture method. Antigen protein was used as the analyte. The data of dissociation (kd) and association (ka) rate constants were obtained using Biacore T200 evaluation software. The apparent equilibrium dissociation constants (KD) were calculated from the ratio of kd over ka. For affinity ranking, twenty-five humanized antibodies plus chimericantibody were injected and captured on sensor chip individually. The antibodies were ranked based on their dissociation rates (kd).

[10] = molecular target: T1, MUC1 on HCT116/MUC1 cells; experiment: FACS titration, HCT116/MUC1 cells, antibody at 250 nM
Protocol: as §1

[11] = molecular target: T1, MUC1 on HCT116/MUC1 cells; experiment: FACS titration, HCT116/MUC1 cells, antibody at 3.906 nM
Protocol: as §1

[12] = molecular target: T1, MUC1 on HCT116/MUC1 cells; experiment: FACS titration, HCT116/MUC1 cells, antibody at 31.25 nM
Protocol: as §1

[13] = molecular target: T1, MUC1 on HCT116/MUC1 cells; experiment: FACS titration, HCT116/MUC1 cells, antibody at 500 nM
Protocol: as §1

T1 sequence (P15941 24-1255 limits assumed): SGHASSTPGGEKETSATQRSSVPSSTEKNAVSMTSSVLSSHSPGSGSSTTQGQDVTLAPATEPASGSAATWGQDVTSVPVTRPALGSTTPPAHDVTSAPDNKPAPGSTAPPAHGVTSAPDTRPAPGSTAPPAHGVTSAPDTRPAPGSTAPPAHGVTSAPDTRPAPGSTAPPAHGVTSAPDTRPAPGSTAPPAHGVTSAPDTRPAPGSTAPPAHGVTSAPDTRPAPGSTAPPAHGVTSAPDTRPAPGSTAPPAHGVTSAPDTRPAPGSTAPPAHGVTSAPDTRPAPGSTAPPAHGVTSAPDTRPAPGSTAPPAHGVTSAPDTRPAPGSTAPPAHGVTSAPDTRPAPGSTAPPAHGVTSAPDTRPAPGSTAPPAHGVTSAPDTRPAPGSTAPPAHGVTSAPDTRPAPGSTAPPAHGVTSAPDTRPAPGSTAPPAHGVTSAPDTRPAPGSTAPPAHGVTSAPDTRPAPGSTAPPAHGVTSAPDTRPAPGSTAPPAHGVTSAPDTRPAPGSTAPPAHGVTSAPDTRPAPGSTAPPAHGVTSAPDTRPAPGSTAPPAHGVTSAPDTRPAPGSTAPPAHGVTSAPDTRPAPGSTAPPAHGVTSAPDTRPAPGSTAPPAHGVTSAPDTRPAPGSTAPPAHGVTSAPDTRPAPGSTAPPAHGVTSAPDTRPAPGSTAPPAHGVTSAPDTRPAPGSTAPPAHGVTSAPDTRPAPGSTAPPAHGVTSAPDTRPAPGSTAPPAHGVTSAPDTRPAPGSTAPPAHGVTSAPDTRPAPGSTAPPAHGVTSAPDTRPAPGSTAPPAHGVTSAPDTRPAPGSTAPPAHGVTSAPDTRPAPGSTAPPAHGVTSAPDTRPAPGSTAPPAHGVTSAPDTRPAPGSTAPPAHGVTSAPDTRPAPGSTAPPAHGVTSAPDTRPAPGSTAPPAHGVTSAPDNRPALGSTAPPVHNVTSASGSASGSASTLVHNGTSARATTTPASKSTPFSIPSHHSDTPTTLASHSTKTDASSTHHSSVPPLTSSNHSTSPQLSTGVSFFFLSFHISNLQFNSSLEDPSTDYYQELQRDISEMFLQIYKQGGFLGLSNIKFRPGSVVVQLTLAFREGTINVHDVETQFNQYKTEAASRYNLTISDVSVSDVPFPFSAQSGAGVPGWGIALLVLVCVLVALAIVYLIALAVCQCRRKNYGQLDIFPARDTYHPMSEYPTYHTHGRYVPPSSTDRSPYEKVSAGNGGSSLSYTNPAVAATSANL

B1: VH5 + VL3 (antibody, V domains shown)
VH: EVQLVQSGAEVKKPGESLKISCKGSGYAFSNFWMNWVRQMPGKGLEWMGQIYPGDGDTNYNGKFKGQVTISADKSISTAYLQWSSLKASDTAMYYCARSYYRSAWFAYWGQGTLVTVSL
VL: EIVLTQSPATLSLSPGERATLSCRASQSIGTSIHWYQQKPGQAPRLLIYYASESISGIPARFSGSGSGTDFTLTISSLEPEDFAVYYCQQSNNWPLTFGGGTKVEIK
notes: Humanized IgG expressed in HEK293; also called humanized antibody VH5+VL3
geometric mean [1]: 8.05
geometric mean [2]: 126
geometric mean [3]: 61.5
EC50 [4]: 21.9 nM
geometric mean [5]: 141
geometric mean [6]: 31
geometric mean [7]: 2.82
geometric mean [8]: 3.27
geometric mean [9]: 4.13
koff (MUC1-SEA-His protein): 0.0164 s⁻¹
geometric mean [10]: 167
geometric mean [11]: 15.5
geometric mean [12]: 110
geometric mean [13]: 170

B2: VH4 + VL2 (antibody, V domains shown)
VH: QVQLVQSGAEVKKPGATVKISCKVSGYAFSNFWMNWVQQAPGKGLEWMGQIYPGDGDTNYNGKFKGRVTITADTSTDTAYMELSSLRSEDTAVYYCARSYYRSAWFAYWGQGTLVTVSR
VL: B1 VL with L4M, L13V, D70E, E79Q, P80S
notes: Humanized IgG expressed in HEK293; also called humanized antibody VH4+VL2
koff (MUC1-SEA-His protein): 0.0315 s⁻¹

B3: VH5 + VL4 (antibody, V domains shown)
VH: B1 VH
VL: AIQLTQSPSSLSASVGDRVTITCRASQSIGTSIHWYQQKPGKAPKLLIYYASESISGVPSRFSGSGSGTDFTLTISSLQPEDFATYYCQQSNNWPLTFGGGTKVEIK
notes: Humanized IgG expressed in HEK293; also called humanized antibody VH5+VL4
geometric mean [1]: 5.71
geometric mean [2]: 202
geometric mean [3]: 67.1
EC50 [4]: 20.6 nM
geometric mean [5]: 190
geometric mean [6]: 28.6
geometric mean [7]: 2.84
geometric mean [8]: 3.52
geometric mean [9]: 4.01
koff (MUC1-SEA-His protein): 0.0179 s⁻¹
geometric mean [10]: 193
geometric mean [11]: 15.3
geometric mean [12]: 152
geometric mean [13]: 199

B4: VH2 + VL2 (antibody, V domains shown)
VH: B2 VH with T17S, I20V, V24A, Q38R, K43Q, I70M, A72R, D77S, A79V, R119S
VL: B1 VL with L4M, L13V, D70E, E79Q, P80S
notes: Humanized IgG expressed in HEK293; also called humanized antibody VH2+VL2
koff (MUC1-SEA-His protein): 0.0166 s⁻¹

B5: VH3 + VL2 (antibody, V domains shown)
VH: QVQLVQSGAEVKKPGASVKVSCKASGYAFSNFWMNWVRQAPGQGLEWMGQIYPGDGDTNYNGKFKGRVTMTRDTSISTAYMELSRLRSDDTAVYYCARSYYRSAWFAYWGQGTLVTVSS
VL: B1 VL with L4M, L13V, D70E, E79Q, P80S
notes: Humanized IgG expressed in HEK293; also called humanized antibody VH3+VL2
koff (MUC1-SEA-His protein): 0.0195 s⁻¹

B6: VH1 + VL2 (antibody, V domains shown)
VH: B5 VH with A16S, M70I, R72A, T74K, I76T, R85S, D89E
VL: B1 VL with L4M, L13V, D70E, E79Q, P80S
notes: Humanized IgG expressed in HEK293; also called humanized antibody VH1+VL2
koff (MUC1-SEA-His protein): 0.0294 s⁻¹

B7: VH1 + VL3 (antibody, V domains shown)
VH: B5 VH with A16S, M70I, R72A, T74K, I76T, R85S, D89E
VL: B1 VL
notes: Humanized IgG expressed in HEK293; also called humanized antibody VH1+VL3
koff (MUC1-SEA-His protein): 0.0225 s⁻¹

B8: VH5 + VL2 (antibody, V domains shown)
VH: B1 VH
VL: B1 VL with L4M, L13V, D70E, E79Q, P80S
notes: Humanized IgG expressed in HEK293; also called humanized antibody VH5+VL2
koff (MUC1-SEA-His protein): 0.0228 s⁻¹

B9: VH4 + VL3 (antibody, V domains shown)
VH: B2 VH
VL: B1 VL
notes: Humanized IgG expressed in HEK293; also called humanized antibody VH4+VL3
koff (MUC1-SEA-His protein): 0.0237 s⁻¹

B10: VH5 + VL5 (antibody, V domains shown)
VH: B1 VH
VL: B3 VL with A1D, Q3V, L4M, S10L, V15T, T22S, K45E, S77C, P80S, G100Q
notes: Humanized IgG expressed in HEK293; also called humanized antibody VH5+VL5
koff (MUC1-SEA-His protein): 0.0207 s⁻¹

B11: VH2 + VL1 (antibody, V domains shown)
VH: B5 VH with I76T, A79V, R85S, D89E
VL: EIVLTQSPDFQSVTPKEKVTITCRASQSIGTSIHWYQQKPDQSPKLLIKYASESISGVPSRFSGSGSGTDFTLTINSLEAEDAATYYCQQSNNWPLTFGQGTKVEIK
notes: Humanized IgG expressed in HEK293; also called humanized antibody VH2+VL1
geometric mean [1]: 4.38
geometric mean [2]: 306
geometric mean [3]: 29
EC50 [4]: 58.6 nM
geometric mean [5]: 265
geometric mean [6]: 6.37
geometric mean [7]: 3
geometric mean [8]: 3.27
geometric mean [9]: 3.68
koff (MUC1-SEA-His protein): 0.00133 s⁻¹
geometric mean [10]: 337
geometric mean [11]: 5.23
geometric mean [12]: 126
geometric mean [13]: 342

B12: VH1 + VL5 (antibody, V domains shown)
VH: B5 VH with A16S, M70I, R72A, T74K, I76T, R85S, D89E
VL: B3 VL with A1D, Q3V, L4M, S10L, V15T, T22S, K45E, S77C, P80S, G100Q
notes: Humanized IgG expressed in HEK293; also called humanized antibody VH1+VL5
koff (MUC1-SEA-His protein): 0.0302 s⁻¹

B13: VH4 + VL5 (antibody, V domains shown)
VH: B2 VH
VL: B3 VL with A1D, Q3V, L4M, S10L, V15T, T22S, K45E, S77C, P80S, G100Q
notes: Humanized IgG expressed in HEK293; also called humanized antibody VH4+VL5
koff (MUC1-SEA-His protein): 0.0578 s⁻¹

B14: VH3 + VL5 (antibody, V domains shown)
VH: B5 VH
VL: B3 VL with A1D, Q3V, L4M, S10L, V15T, T22S, K45E, S77C, P80S, G100Q
notes: Humanized IgG expressed in HEK293; also called humanized antibody VH3+VL5
koff (MUC1-SEA-His protein): 0.023 s⁻¹

B15: VH4 + VL4 (antibody, V domains shown)
VH: B2 VH
VL: B3 VL
notes: Humanized IgG expressed in HEK293; also called humanized antibody VH4+VL4
koff (MUC1-SEA-His protein): 0.0243 s⁻¹

B16: VH2 + VL5 (antibody, V domains shown)
VH: B5 VH with I76T, A79V, R85S, D89E
VL: B3 VL with A1D, Q3V, L4M, S10L, V15T, T22S, K45E, S77C, P80S, G100Q
notes: Humanized IgG expressed in HEK293; also called humanized antibody VH2+VL5
koff (MUC1-SEA-His protein): 0.0193 s⁻¹

B17: VH1 + VL1 (antibody, V domains shown)
VH: B5 VH with A16S, M70I, R72A, T74K, I76T, R85S, D89E
VL: B11 VL
notes: Humanized IgG expressed in HEK293; also called humanized antibody VH1+VL1
geometric mean [1]: 5.68
geometric mean [2]: 332
geometric mean [3]: 68.7
EC50 [4]: 30.3 nM
geometric mean [5]: 290
geometric mean [6]: 23.1
geometric mean [7]: 2.72
geometric mean [8]: 3
geometric mean [9]: 3.17
koff (MUC1-SEA-His protein): 0.0021 s⁻¹
geometric mean [10]: 363
geometric mean [11]: 9.54
geometric mean [12]: 185
geometric mean [13]: 351

B18: VH3 + VL1 (antibody, V domains shown)
VH: B5 VH
VL: B11 VL
notes: Humanized IgG expressed in HEK293; also called humanized antibody VH3+VL1
geometric mean [1]: 11.4
geometric mean [2]: 305
geometric mean [3]: 71.3
EC50 [4]: 28.7 nM
geometric mean [5]: 263
geometric mean [6]: 36
geometric mean [7]: 3.1
geometric mean [8]: 3.81
geometric mean [9]: 6.94
koff (MUC1-SEA-His protein): 0.0015 s⁻¹
geometric mean [10]: 321
geometric mean [11]: 16.3
geometric mean [12]: 192
geometric mean [13]: 334
